From patent US12214014B2, “Methods for scar reduction by converting scar fibroblasts into adipocytes with hair follicle-derived signals” (The Trustees of the University of Pennsylvania, priority 2017, dated 2025)
“Also recorded” adds a separate entry of the source.

Experiments:
[1] = system: regenerated adipocytes in wounds; assay: Adipocyte regeneration in large excisional skin wounds (adipocyte/hair follicle index, Oil Red O); assay type: in vivo, mouse; conditions: for Adipocyte/hair index (new adipocyte/follicle ratio): WT mice treated during wound healing, post-wounding Day 28; for regeneration of new adipocytes in hair-bearing wounds: treatment during wound healing (2 mg/kg), hair follicles regenerate normally
Protocol: (§1) All animal experiments were carried out in accordance to with the guidelines of the IACUC of the University of Pennsylvania and the University of California, Irvine. Full thickness 1.5×1.5 cm (2.25 cm^2) excisional wounds were inflicted on the backs of three to eight week-old mice as described in M. Ito et al., Nature 447:316 (2007).
Whole mount wounds were stained for Oil Red O and the number of regenerated hair follicles was counted from the skin surface, where each new hair is clearly visible. The number of new adipocytes was counted from the underside, where each adipocyte is clearly visible due to their very large size and prominent marking by Oil Red O dye. For each experiment, adipose tissue regeneration was quantified as the ratio of all new adipocytes/all new hair follicles (aka adipocyte/hair follicle index). Some wound samples (FIG. 2B) were stained for lacZ and photographed, then additionally stained for Oil Red O and photographed again. Adipocytes were then micro-dissected and photographed under stereomicroscope.

[2] = system: Zfp423; assay: Zfp423 reporter (lacZ) activity in wounds of Zfp423-lacZ mice; assay type: in vivo, mouse; conditions: 2 mg/kg during wound healing, day 21
Protocol: FIG. 25: BMP signaling is necessary for Zfp423 reporter activation in wounds. […] Asterisk marks lacZ-positive dermal papillae of new hair follicles. Size bars: 100 μm.
as §1

[3] = system: mouse dermal cells isolated from day 15 wounds; assay: Primary mouse adipogenic cell culture; assay type: cell-based; conditions: 6 ng/ml hBMP4 or 25 ng/ml hBMP2 with differentiation media
Protocol: Primary scar cells were isolated from day 15 wounds as described in D. Gay et al., Nature medicine 19:916 (2013) with minor modifications. Single cell fractions were created and cultured to confluence in high-glucose to DMEM (Gibco) supplemented with 10% FBS (Atlanta Biologicals) and […] Pen/Strep cocktail (Gibco). […] After three days, cells differentiation media was switched to adipocyte maintenance media (Cell Solutions). Cells were cultured in a water-jacketed incubator at 37° C. with 5% CO2 output
(§2) Total RNA was isolated using Trizol reagent (Thermo) or RNEasy Micro-Kit (Qiagen) as per manufacturer's protocol with minor modifications. Total RNA was reverse-transcribed and cDNA was amplified using PCR primers described in J. Ishibashi et al., Mol Cell Biol 32:2289 (2012). See Tables 3 and 4 for the sequences of primers used.

[4] = system: human hypertrophic scar fibroblasts; assay: Primary human adipogenic cell culture, hypertrophic scar fibroblasts; assay type: cell-based; conditions: n=3
Protocol: (§3) All human experiments were carried out in accordance with the guidelines of the IRB of the University of California, Irvine, Children's Hospital Los Angeles and Kyungpook National University. Keloid fibroblasts were isolated as described in Y. S. Lee et al., Wound repair and regeneration: official publication of the Wound Healing Society [and] the European Tissue Repair Society 24:302 (2016). Human hypertrophic scar myofibroblasts were derived from clinical specimen biopsies and expanded in vitro as described in M. Vangipuram et al., Journal of visualized experiments: JoVE, e3779 (2013).
Primary human scar cells were cultured in DMEM/F12 media (Gibco) supplemented with 10% FBS (Fisher Scientific). Upon confluency, cells were switched to serum free DMEM/F12 media and treated with 20 ng/ml recombinant hBMP4 protein (R&D Systems) for 48 hours before differentiation. For the hair follicle co-culture, cells were grown in 12-well trans-well plates. Once near confluency, medium was changed to William's E hair follicle organ culture medium, and 40 microdissected human scalp anagen hair follicles were co-cultured on top of the membrane insert in each well for 5 days. Control cells were cultured in William's E medium without hair follicles. […]

[5] = system: human keloid scar cells; assay: Primary human adipogenic cell culture, keloid scar cells; assay type: cell-based; conditions: 20 ng/ml hBMP4 for 48 hours, then adipogenic cocktail; for adipogenic conversion of keloid scar cells (Oil Red O positive adipocytes): n=3
Protocol: as §3
Primary human scar cells were cultured in DMEM/F12 media (Gibco) supplemented with 10% FBS (Fisher Scientific). Upon confluency, cells were switched to serum free DMEM/F12 media and treated with 20 ng/ml recombinant hBMP4 protein (R&D Systems) for 48 hours before differentiation. For the hair follicle co-culture, cells were grown in 12-well trans-well plates. Once near confluency, medium was changed to William's E hair follicle organ culture medium, and 40 microdissected human scalp anagen hair follicles were co-cultured on top of the membrane insert in each well for 5 days. Control cells were cultured in William's E medium without hair follicles. In all cases, adipogenic differentiation was induced by adding adipogenic cocktail: DMEM/F12 media supplemented with 1% ITS premix (insulin-transferrin-selenium; BD Biosciences), 0.5 mM isobutylmethylxanthine (Sigma), 0.1 μM cortisol (Sigma), 1 μM dexamethasome (Sigma), 0.2 nM triiodothyronine (Sigma), and 1 μM rosiglitazone (Cayman Chemical). After 4 days of induction, cells were changed to maintenance media: DMEM/F12 media supplemented with 1% ITS premix (BD Biosciences), 0.1 μM cortisol (Sigma), and 0.2 nM triiodothyronine (Sigma). For the hair follicle co-culture, cells were maintained in the induction media for 7 days. Lipid droplets were visualized after 7 days and cells were harvested for RNA isolation on day 10.
as §2

[6] = listed as small-molecule inhibitor of SMAD1/5/8 phosphorylation

## c1ccc2c(-c3cnn4cc(-c5ccc(N6CCNCC6)cc5)cnc34)ccnc2c1 [LDN-193189]
[1]
  Adipocyte/hair index (new adipocyte/follicle ratio): 0.58 ± 0.35
  regeneration of new adipocytes in hair-bearing wounds: near complete loss of regenerated adipocytes
[1]; [6]
  Adipocyte/hair index (new adipocyte/follicle ratio): 0.58+/−0.35
  regeneration of new adipocytes in hair-bearing wounds: largely prevented new adipocyte regeneration
[2]
  Zfp423 activity (reporter) in dermal cells surrounding new hair follicles and in blood vessels: significantly downregulated
[2]; [6]
  Zfp423 activity (reporter) in dermal cells surrounding new hair follicles and in blood vessels: downregulated

B1: BMP4: human recombinant bone morphogenetic protein 4 (R&D Systems) (protein, UniProt P12644 293-408, looked up)
Bone morphogenetic protein 4: SPKHHSQRARKKNKNCRRHSLYVDFSDVGWNDWIVAPPGYQAFYCHGDCPFPLADHLNSTNHAIVQTLVNSVNSSIPKACCVPTELSAISMLYLDEYDKVVLKNYQEMVVEGCGCR
[3]
  activation of adipocyte-specific genes (qRT-PCR): activation of adipocyte-specific genes
[3]; without BMP non-adipogenic
  reprogramming of cultured mouse dermal cells into adipocytes: induced their reprogramming into adipocytes
[4]; following hBMP4 treatment
  qRT-PCR against select adipogenic genes: only ADIPISIN becomes significantly upregulated
[4]; hBMP4 for 48 hours prior to differentiation, vs non-hBMP4 control
  adipogenic potential of hypertrophic scar fibroblasts (Oil Red O): does not induce an increase in adipogenic potential
[5]
  expression of adipogenic genes ZNF423, ADIPOQ, ADIPOSIN, PPARG2, FABP4 (qRT-PCR): expression of adipocyte markers; also recorded: activation of adipocyte-specific genes
  adipogenic conversion of keloid scar cells (Oil Red O positive adipocytes): induced their conversion to lipid-laden adipocytes; also recorded: induced their reprogramming into adipocytes
[5]; listed as hBMP4
  expression of adipogenic genes ZNF423, ADIPOQ, ADIPOSIN, PPARG2, FABP4 (qRT-PCR): upregulation of adipogenic genes
  adipogenic conversion of keloid scar cells (Oil Red O positive adipocytes): consistently induced adipogenic conversion
